For the experiment, the target named is Recombinant hemagglutinin of H3N2 A/Texas/50/2012, ectodomain, monomeric (Influenza A virus A/Texas/50/2012 (H3N2), UniProt R4L1D1, strain). The experiment in a line: SPR. The following applies: both partners purified.

B1: AF4H1K1 Fab (Fab, V domains shown)
VH: QVQLVESGGGVVQPGTSLRLSCEASGFTSSAYAMHWVRQAPGKGLEWVAVITFDGGYQYYADSVKGRFTISRDISRNTLHLHMNSLRAEDTAVYYCARDPLTKLLPFDWVSGGYFDYWGQGTLVTVSS
VL: not shown
notes: also called H1 paired with K1
As usually defined, the Kd is a measure of binding affinity in units of concentration. Consider B1, for which the Kd worked out at 49 nM.
